For 1 molecule, Kd results are on record in US20230287108A1 (published 2023).

The Kd is the constant that tells how readily two partners part at equilibrium.

This assay addresses T1, recombinant cynomolgus monkey (Macaca fascicularis) transferrin receptor 1 (cTfR1) (cynomolgus monkey (Macaca fascicularis), UniProt Q5RDH6 87-760 (Pongo abelii entry), limits assumed).
T1 construct: Recombinant protein; also called cyTfR1; cyno TfR1
T1 chain: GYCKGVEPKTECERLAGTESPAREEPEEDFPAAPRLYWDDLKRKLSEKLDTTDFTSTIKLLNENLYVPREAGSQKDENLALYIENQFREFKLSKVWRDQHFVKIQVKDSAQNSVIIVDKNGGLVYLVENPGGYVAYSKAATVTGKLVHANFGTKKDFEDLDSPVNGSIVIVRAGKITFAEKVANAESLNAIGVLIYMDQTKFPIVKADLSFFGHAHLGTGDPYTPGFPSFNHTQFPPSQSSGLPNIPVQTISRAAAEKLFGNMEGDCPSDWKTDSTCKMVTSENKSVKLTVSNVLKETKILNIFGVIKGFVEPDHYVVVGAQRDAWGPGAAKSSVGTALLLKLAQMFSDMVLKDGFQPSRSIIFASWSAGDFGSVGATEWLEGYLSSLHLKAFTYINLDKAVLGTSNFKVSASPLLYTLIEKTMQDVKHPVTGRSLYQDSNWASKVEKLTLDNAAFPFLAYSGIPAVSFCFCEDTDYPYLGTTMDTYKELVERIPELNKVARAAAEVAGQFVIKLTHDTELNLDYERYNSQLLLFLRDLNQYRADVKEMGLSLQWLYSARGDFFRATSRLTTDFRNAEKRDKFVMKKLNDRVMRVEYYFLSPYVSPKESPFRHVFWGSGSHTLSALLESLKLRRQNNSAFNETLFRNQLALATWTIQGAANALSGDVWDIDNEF
Briefly: Avg KD, antibody alone; table gives no method.

B1: 15G11 (control anti-TfR1 antibody) (antibody, V domains shown)
VH: QVQLQQPGAELVKPGASVKLSCKASGYTFTSYWMHWVKQRPGQGLEWIGEINPTNGRTNYIEKFKSKATLTVDKSSSTAYMQLSSLTSEDSAVYYCARGTRAYHYWGQGTSVTVSS
VL: DIQMTQSPASLSVSVGETVTITCRASDNLYSNLAWYQQKQGKSPQLLVYDATNLADGVPSRFSGSGSGTQYSLKINSLQSEDFGTYYCQHFWGTPLTFGAGTKLELK
For the molecule B1, the Kd came to 1 nM.
